± gives the standard deviation of the averaged measurements.
Experiments:
[1] = tested on: VchCAST RNA-guided transposition machinery (E. coli BL21(DE3) host, lacZ target); experiment: relative integration efficiency (T-LR orientation) vs wild-type transposon end (log2 (normalized fold change)); transposon end mutated: left end; higher = more efficient transposition
Procedure: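 Pooled, barcoded VchCAST (Tn6677) mini-transposon donor libraries; each variable transposon-end sequence sits in a fixed pDonor mini-transposon context (10-bp barcode and cargo not included). Left- or right-end libraries were co-transformed with pEffector (TniQ-Cascade, TnsABC, lacZ crRNA, T7, 0.1 mM IPTG) into E. coli BL21(DE3) and grown 18 h at 37 C. T-LR and T-RL junction amplicons were sequenced; output/input barcode fold change was normalised to the mean of four wild-type barcodes and log2-transformed. Two biological replicates; zero-count/undetected variants carry floor values (-10 / -15), censored here. Barcode uncoupling by PCR recombination adds noise.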

[2] = tested on: VchCAST RNA-guided transposition machinery (E. coli BL21(DE3) host, lacZ target); experiment: relative integration efficiency (T-RL orientation) vs wild-type transposon end (log2 (normalized fold change)); transposon end mutated: left end; higher = more efficient transposition
Procedure, shortened: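 A T7-driven effector plasmid encoding a CRISPR array, tniQ-cas8-cas7-cas6 and tnsA-tnsB-tnsC was co-transformed into E. coli BL21(DE3) together with a pUC57 mini-transposon donor holding barcoded pools of 1549 left-end or 1849 right-end variants. Transformants were plated with 0.1 mM IPTG at 37°C for 18 h. Illumina sequencing of PCR-amplified input plasmids and genomic integration junctions gave barcode abundances, and relative integration efficiency is their output/input fold change, normalised to reference barcodes and log-transformed.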

Row | Sequence | relative integration efficiency (log2) [1] | relative integration efficiency (log2) [2]
1 | AATGTTGTTGATGCAACCATAAAGTGATATTTAACTCTCTTCTTTAGCAGTCTAGTCTATTGAAACTCAACCATATATTGATATCTCACAAAACAACCATAAGTTGATATTTTTGTGAATCGAGTATTTCAGCAAAACTACTGCAGTAAGAA | -5.31 ± 0.24 | -3.73 ± 1.2
2 | AATGTTGTTGATGCAACCATAAAGTGATATTTAAGCCGGCGGGCGCCGACTACCAGGCCAACACCCCACCAACGCGCGGTCGCGAGACACCCCACCAACGCCTGGTCGCGGGGGTGTCCGATCTGATTTCAGCAAAACTACTGCAGTAAGAA | -5.38 ± 1 | -6.95 ± 1.1
3 | AATGTTGTTGATGCAACCATAAAGTGATATTTAAGCTATACTCTAGGTATCTAACTTGTCCCATTGCCAACCATATATTGATATCTCACAAAACAACCATAAGTTGATATTTTTGTGAATCGAGTATTTCAGCAAAACTACTGCAGTAAGAA | -3.91 ± 1.4 | -4.82 ± 1.4
4 | AATGTTGTTGATGCAACCATAAAGTGATATTTAAGTACTGCGCGTCTGAAGTCATCTTTAAACCGAACAACCATATATTGATATCTCACAAAACAACCATAAGTTGATATTTTTGTGAATCGAGTATTTCAGCAAAACTACTGCAGTAAGAA | -3.06 ± 1.1 | -3.55 ± 0.95
5 | AATGTTGTTGATGCAACCATAAAGTGATATTTAATAACAACCATAAAGTGATATTTAACTTAACCACCAACCATATATTGATATCTCACAAAACAACCATAAGTTGATATTTTTGTGAATCGAGTATTTCAGCAAAACTACTGCAGTAAGAA | -3.39 ± 0.26 | -4.66 ± 1.1
6 | AATGTTGTTGATGCAACCATAAAGTGATATTTAATAACAACCATATATTGATATCTCACAAAACAACCATAAGTTGATATTTTTGTGAATCGAGTATTTCAGCAAAACTACTGCAGTAAGAAAGTTACTTCGTGGTATGGGAGGATCAAGGA | -3.02 ± 1.5 | -5.54 ± 1.1
7 | AATGTTGTTGATGCAACCATAAAGTGATATTTAATAACAACCATATATTGATATCTCACAAAACAACCATAAGTTGATATTTTTTATTTATAATCAGCAACTTAACCACAAAATGTGAATCGAGTATTTCAGCAAAACTACTGCAGTAAGAA | -1.89 ± 1 | -3.74 ± 0.68
8 | AATGTTGTTGATGCAACCATAAAGTGATATTTAATAACAACCATATATTGATATCTCTTATTTATAATCAGCAACTTAACCACAAAAACAAAACAACCATAAGTTGATATTTTTGTGAATCGAGTATTTCAGCAAAACTACTGCAGTAAGAA | -2.07 ± 1.8 | -3.58 ± 1
9 | AATGTTGTTGATGCAACCATAAAGTGATATTTAATAACTTCGTATAAAGTATCCTATACGAAGTTATCAACCATATATTGATATCTCACAAAACAACCATAAGTTGATATTTTTGTGAATCGAGTATTTCAGCAAAACTACTGCAGTAAGAA | -2.99 ± 2.4 | -2.17 ± 0.99
10 | AATGTTGTTGATGCAACCATAAAGTGATATTTAATAACTTCGTATAAGGTATACTATACGAAGTTATCAACCATATATTGATATCTCACAAAACAACCATAAGTTGATATTTTTGTGAATCGAGTATTTCAGCAAAACTACTGCAGTAAGAA | -3.52 ± 1.1 | -3.34 ± 1.1
11 | AATGTTGTTGATGCAACCATAAAGTGATATTTAATAACTTCGTATAATGTATACTATACGAAGTTATCAACCATATATTGATATCTCACAAAACAACCATAAGTTGATATTTTTGTGAATCGAGTATTTCAGCAAAACTACTGCAGTAAGAA | -2.57 ± 2.1 | -3.05 ± 1.2
12 | AATGTTGTTGATGCAACCATAAAGTGATATTTAATAACTTCGTATAATGTATCGTATACGAACGGTACAACCATATATTGATATCTCACAAAACAACCATAAGTTGATATTTTTGTGAATCGAGTATTTCAGCAAAACTACTGCAGTAAGAA | -4.18 ± 0.64 | -3.32 ± 0.82
13 | AATGTTGTTGATGCAACCATAAAGTGATATTTAATAACTTCGTATAATGTATGCTATACGAAGTTATCAACCATATATTGATATCTCACAAAACAACCATAAGTTGATATTTTTGTGAATCGAGTATTTCAGCAAAACTACTGCAGTAAGAA | -3.76 ± 2.9 | -2.95 ± 1.1
14 | AATGTTGTTGATGCAACCATAAAGTGATATTTAATAACTTCGTATAGGATACTTTATACGAAGTTATCAACCATATATTGATATCTCACAAAACAACCATAAGTTGATATTTTTGTGAATCGAGTATTTCAGCAAAACTACTGCAGTAAGAA | -3.99 ± 1.5 | -3.72 ± 1.3
15 | AATGTTGTTGATGCAACCATAAAGTGATATTTAATAACTTCGTATAGTATACATTATACGAAGTTATCAACCATATATTGATATCTCACAAAACAACCATAAGTTGATATTTTTGTGAATCGAGTATTTCAGCAAAACTACTGCAGTAAGAA | -4.118 ± 0.013 | -2.92 ± 1
16 | AATGTTGTTGATGCAACCATAAAGTGATATTTAATAACTTGGTATAGCATACATTATACGAACGGTACAACCATATATTGATATCTCACAAAACAACCATAAGTTGATATTTTTGTGAATCGAGTATTTCAGCAAAACTACTGCAGTAAGAA | -4.2 ± 0.86 | -3.71 ± 1.4
17 | AATGTTGTTGATGCAACCATAAAGTGATATTTAATAAGGCGGGCGCCGACTACCAGGCCAACACCCCACCAACGCGCGGTCGCGAGACACCCCACCAACGCCTGGTCGCGGGGGTGTCCGATCTGATTTCAGCAAAACTACTGCAGTAAGAA | -3.73 ± 1.5 | -7.05 ± 1.6
18 | AATGTTGTTGATGCAACCATAAAGTGATATTTAATAATCAACCATAAAGTGATATTTAACTTAACCACAACCATATATTGATATCTCACAAAACAACCATAAGTTGATATTTTTGTGAATCGAGTATTTCAGCAAAACTACTGCAGTAAGAA | -4.25 ± 0.83 | -2.68 ± 0.72
19 | AATGTTGTTGATGCAACCATAAAGTGATATTTAATAATCAACCATATATTGATATCTCACAAAACAACCATAAGTTGATATTTTTGTGAATCGAGTATTTCAGCAAAACTACTGCAGTAAGAAAGTTACTTCGTGGTATGGGAGGATCAAGG | < -10 | -7.79 ± 2.1
20 | AATGTTGTTGATGCAACCATAAAGTGATATTTAATAATCAACCATATATTGATATCTCTATTTATAATCAGCAACTTAACCACAAAAACAAAACAACCATAAGTTGATATTTTTGTGAATCGAGTATTTCAGCAAAACTACTGCAGTAAGAA | -0.761 ± 1 | -2.9 ± 1.1
21 | AATGTTGTTGATGCAACCATAAAGTGATATTTAATAATCAACTGTATATAAATACAGTTCCACAAAACAACCATATATTGATATCTCACAAAACAACCATAAGTTGATATTTTTGTGAATCGAGTATTTCAGCAAAACTACTGCAGTAAGAA | -5.77 ± 0.6 | -4.85 ± 1.1
22 | AATGTTGTTGATGCAACCATAAAGTGATATTTAATAATGCGGGCGCCGACTACCAGGCCAACACCCCACCAACGCGCGGTCGCGAGACACCCCACCAACGCCTGGTCGCGGGGGTGTCCGATCTGATTTCAGCAAAACTACTGCAGTAAGAA | -5.9 ± 3.3 | -7.04 ± 1.2
23 | AATGTTGTTGATGCAACCATAAAGTGATATTTAATAATGGAATTGTGAGCGGATAACAATTACAAAACAACCATATATTGATATCTCACAAAACAACCATAAGTTGATATTTTTGTGAATCGAGTATTTCAGCAAAACTACTGCAGTAAGAA | -3.41 ± 0.6 | -4.89 ± 0.52
24 | AATGTTGTTGATGCAACCATAAAGTGATATTTAATAATTACAACCATATATTGATATCTCTTTATAATCAGCAACTTAACCACAAAAACAAAACAACCATAAGTTGATATTTTTGTGAATCGAGTATTTCAGCAAAACTACTGCAGTAAGAA | -2.04 ± 1.6 | -4.31 ± 0.99
25 | AATGTTGTTGATGCAACCATAAAGTGATATTTAATAATTAGGGCGCCGACTACCAGGCCAACACCCCACCAACGCGCGGTCGCGAGACACCCCACCAACGCCTGGTCGCGGGGGTGTCCGATCTGATTTCAGCAAAACTACTGCAGTAAGAA | -4.57 ± 0.92 | -7.07 ± 0.66
26 | AATGTTGTTGATGCAACCATAAAGTGATATTTAATAATTATCAACCATAAAGTGATATTTAACTTAACAACCATATATTGATATCTCACAAAACAACCATAAGTTGATATTTTTGTGAATCGAGTATTTCAGCAAAACTACTGCAGTAAGAA | -4.24 ± 1.2 | -3.5 ± 0.95
27 | AATGTTGTTGATGCAACCATAAAGTGATATTTAATAATTATCAACCATATATTGATATCTCTTATAATCAGCAACTTAACCACAAAAACAAAACAACCATAAGTTGATATTTTTGTGAATCGAGTATTTCAGCAAAACTACTGCAGTAAGAA | -2.13 ± 1.5 | -4.57 ± 1.7
28 | AATGTTGTTGATGCAACCATAAAGTGATATTTAATAATTATTCAACCATATATTGATATCTCACAAAACAACCATAAGTTGATATTTTTATAATCAGCAACTTAACCACAAAATGTGAATCGAGTATTTCAGCAAAACTACTGCAGTAAGAA | < -10 | -6.852 ± 0.014
29 | AATGTTGTTGATGCAACCATAAAGTGATATTTAATAATTATTCAACCATATATTGATATCTCTATAATCAGCAACTTAACCACAAAAACAAAACAACCATAAGTTGATATTTTTGTGAATCGAGTATTTCAGCAAAACTACTGCAGTAAGAA | -3.42 ± 0.56 | -5.19 ± 1.2
30 | AATGTTGTTGATGCAACCATAAAGTGATATTTAATAATTATTGCGCCGACTACCAGGCCAACACCCCACCAACGCGCGGTCGCGAGACACCCCACCAACGCCTGGTCGCGGGGGTGTCCGATCTGATTTCAGCAAAACTACTGCAGTAAGAA | -5.68 ± 3.3 | -6.73 ± 0.58

— the supplement of paper PMC10201428
